Test results from patent publication US20260116991A1 (HAINAN SIMCERE ZAIMING PHARMACEUTICAL, published 2026).
Numbering of substitutions follows the chain as printed. One block for each binder: values may come before it.

Assays:
[1] = molecular target: T1, monkey GPC3-His protein (monkey); assay: ELISA, monkey GPC3-His coated;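 note: Plate-coated antigen at 1 µg/mL, antibody binding 2 h at 37 °C, detected with HRP-labeled secondary antibody and TMB, absorbance at 450 nm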
T1 construct: Bought recombinant protein; also called monkey GPC3 protein
Protocol: The specific method is described as follows: The antigen protein was diluted with PBS to a final concentration of 1 μg/mL, and the diluent was added to a 96-well ELISA plate at 50 μL/well. The plate was sealed with a plastic film and incubated at 4° C. overnight, washed twice with PBS the next day, and a blocking solution [PBS+2% (w/w) BSA] was added for blocking at room temperature for 2 h. […] After incubation at 37° C. for 2 h, the plate was washed 3 times with PBS. A horseradish peroxidase (HRP)-labeled secondary antibody (purchased from Merck, Cat. No. AP113P) was added for incubation at 37° C. for 1 h, and the plate was washed 5 times with PBS. A TMB substrate was added at 50 μL/well for incubation at room temperature for 10 min, then a stop solution (1.0M HCl) was added at 50 μL/well. An ELISA plate reader (Multimode Plate Reader, EnSight, purchased from Perkin Elmer) was used to read OD_{450 nm} values, with results as shown in Table 4 to Table 6, FIG. 1A, FIG. 1B, and FIG. 1C.

[2] = molecular target: T2, human GPC3-His protein (human, UniProt P51654 25-559); assay: SPR, antibody captured on Protein A chip, human GPC3-His analyte;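 note: measured at 25 °C flow cell, human GPC3-His injected at five concentrations up to 200 nM, 240 s association, up to 600 s dissociation, double-referenced, fitted to Langmuir 1:1 model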
T2 construct: also called human GPC3 protein; not shown: His tag

[3] = molecular target: T1, monkey GPC3-His protein; assay: SPR, antibody captured on Protein A chip, monkey GPC3-His analyte;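 note: run at 25 °C with 240 s association and up to 600 s dissociation, double-referenced, kinetics fitted to a 1:1 Langmuir binding model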
[4] = molecular target: T3, monkey GPC3 on HEK293T-monkey GPC3 cells (monkey); assay: FACS on HEK293T-monkey GPC3 cells;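 note: flow cytometry binding of test antibodies to the cells, read as mean fluorescence intensity, with half-maximal concentration taken from fitted curves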
T3 construct: whole, on cells

B1: F1.41.17 (antibody, human IgG1, kappa, V domains shown)
VH: EVQLVESGGDSVKPGGSLKLSCAASGFTFSSYGMSWVRQTPDKRLEWVATINSGGSYTYYQDSVKGRFTISRDNAKNTLYLQMSSLKSEDTAIYYCVRHHYGSSYDYFDYWGQGTTLTVSS
VL: DIVMTQAAPSVPVMPGESVSISCRSSKSLLHSNGNTHLYWFLQRPGQSPQLLIYRMSNLASGVPDRFSGSGSGTAFTLRISRVEAEDVGVYYCMQHLEYPLTFGAGTKLELKR
notes: Human-murine chimeric antibody
OD450 at 0.0001 nM [1]: 0.05 OD450
OD450 at 0.001 nM [1]: 0.06 OD450
OD450 at 0.01 nM [1]: 0.11 OD450
OD450 at 0.1 nM [1]: 0.46 OD450
OD450 at 1 nM [1]: 0.83 OD450
OD450 at 10 nM [1]: 0.81 OD450
OD450 at 100 nM [1]: 1.24 OD450
Kd [2]: 7.91 nM
koff [2]: 0.0021 s⁻¹
kon [2]: 265000 M⁻¹ s⁻¹
Kd [3]: 4.42 nM
koff [3]: 0.00213 s⁻¹
kon [3]: 482000 M⁻¹ s⁻¹
EC50 [4]: 0.23 nM
Max MFI [4]: 6210 MFI

B3: F1.115.8 (antibody, human IgG1, kappa, V domains shown)
VH: EVQLQQSGPELVKPGASVKMSCKASGYTFTEYYMHWVKQSHGKSLEWIGYIYPNNGGNGYNQKFKGKATLTVDKSSSTAYMGLRSLTSEDSAVYYCVRGYYSNWYFDVWGTGTTVTVSS
VL: DVLMTQTPLSLPVSLGDQASISCRSSQSIVHSNGKTYLEWYLQKPGQSPKLLIYKVSNRFSGVPDRFSGSGSGTDFTLKISRVEAEDLGVYYCFQGSHVPFTFGSGTKLEIKR
notes: as for B1
OD450 at 0.0001 nM [1]: 0.05 OD450
OD450 at 0.001 nM [1]: 0.07 OD450
OD450 at 0.01 nM [1]: 0.27 OD450
OD450 at 0.1 nM [1]: 1.33 OD450
OD450 at 1 nM [1]: 2.14 OD450
OD450 at 10 nM [1]: 2.36 OD450
OD450 at 100 nM [1]: 2.26 OD450
Kd [2]: 1.4 nM
koff [2]: 0.00115 s⁻¹
kon [2]: 820000 M⁻¹ s⁻¹
Kd [3]: 1.05 nM
koff [3]: 0.00145 s⁻¹
kon [3]: 1.38e+06 M⁻¹ s⁻¹
EC50 [4]: 0.33 nM
Max MFI [4]: 6390 MFI

B5: F2.169.2 (antibody, human IgG1, kappa, V domains shown)
VH: EVQLVETGGGLVQPKGSLKLSCAASGFSFNTNAMNWVRQAPGKGLEWVARIRSKSNNYATYYADSVKDRFTISRDDSQSMLYLQMNNLKTEDTAMYYCVRDGYYVLFAYWGQGTLVTVSA
VL: B3 VL with S25F, H31N, K35N, Y41F, S105T
notes: as for B1
OD450 at 0.0001 nM [1]: 0.05 OD450
OD450 at 0.001 nM [1]: 0.07 OD450
OD450 at 0.01 nM [1]: 0.27 OD450
OD450 at 0.1 nM [1]: 1.36 OD450
OD450 at 1 nM [1]: 2.27 OD450
OD450 at 10 nM [1]: 2.64 OD450
OD450 at 100 nM [1]: 1.99 OD450
EC50 [4]: 0.51 nM
Max MFI [4]: 9880 MFI

B6: F1.118.4 (antibody, human IgG1, kappa, V domains shown)
VH: QVQLQQSGAELAKPGASVKLSCKASGYSFTSYWIHWVKQRPGQGLEWIGYINPSSGYTKYNQKFKDKATLTADKSSSTAYMQLSSLTYEDSAVYYCARFGSSSFYFDYWGQGTTLTVSS
VL: DIVLTQSPASLAVSLGQRATISCRASQSVSSSSYSYMHWYQQKPGQPPKLLIKYASNLDSGVPARFSGSGSGTDFTLNIHPVEEEDTATYYCQHSWEIPAFGGGTKLEIKR
notes: as for B1
OD450 at 0.0001 nM [1]: 0.05 OD450
OD450 at 0.001 nM [1]: 0.08 OD450
OD450 at 0.01 nM [1]: 0.28 OD450
OD450 at 0.1 nM [1]: 1.43 OD450
OD450 at 1 nM [1]: 2.21 OD450
OD450 at 10 nM [1]: 2.32 OD450
OD450 at 100 nM [1]: 2.14 OD450
Kd [2]: 0.472 nM
koff [2]: 0.000118 s⁻¹
kon [2]: 251000 M⁻¹ s⁻¹
Kd [3]: 0.226 nM
koff [3]: 0.000102 s⁻¹
kon [3]: 453000 M⁻¹ s⁻¹
EC50 [4]: 0.32 nM
Max MFI [4]: 6220 MFI

The remaining lines, values ahead:

OD450 at 0.0001 nM [1]: 0.05 OD450
OD450 at 0.001 nM [1]: 0.06 OD450
OD450 at 0.01 nM [1]: 0.12 OD450
OD450 at 0.1 nM [1]: 0.51 OD450
OD450 at 1 nM [1]: 1 OD450
OD450 at 10 nM [1]: 1.11 OD450
OD450 at 100 nM [1]: 1.49 OD450
Kd [2]: 0.271 nM
koff [2]: 6.91e-05 s⁻¹
kon [2]: 255000 M⁻¹ s⁻¹
Kd [3]: 0.1 nM
koff [3]: 4.65e-05 s⁻¹
kon [3]: 464000 M⁻¹ s⁻¹
EC50 [4]: 0.29 nM
Max MFI [4]: 6320 MFI
B2: F1.21.8 (antibody, human IgG1, kappa, V domains shown)
VH: EVQLQQSGPELVKPGASVKISCKTSGFLFTGHYMHWVKSSHGNILDWIGYIYPYNAISFYNQKFKGKATLTVDKSSNTAYMELRSLTSEDSAVYYCARGDYGNYVTAYWGQGTLVTVSA
VL: B3 VL with N33S, K35N, V99L, F101W, S105G, E110D
notes: as for B1

OD450 at 0.0001 nM [1]: 0.06 OD450
OD450 at 0.001 nM [1]: 0.11 OD450
OD450 at 0.01 nM [1]: 0.53 OD450
OD450 at 0.1 nM [1]: 1.91 OD450
OD450 at 1 nM [1]: 2.57 OD450
OD450 at 10 nM [1]: 2.62 OD450
OD450 at 100 nM [1]: 2.66 OD450
Kd [2]: 6.75 nM
koff [2]: 0.000445 s⁻¹
kon [2]: 65800 M⁻¹ s⁻¹
Kd [3]: 4.67 nM
koff [3]: 0.000447 s⁻¹
kon [3]: 95800 M⁻¹ s⁻¹
EC50 [4]: 0.42 nM
Max MFI [4]: 4450 MFI
B4: F1.111.11 (antibody, human IgG1, kappa, V domains shown)
VH: EVQLQQSGPELVKPGASVKISCKASGYTFTDYYMNWVKQSHGKSLEWIGDIYPNNGDTTYNQRFKGKATLTVDKSSSTAYMELRSLASEDSAVYYCACPYNNPFGYWGQGTLVTVSA
VL: B3 VL with L3V, I29L, K35N, E39H, Y92F, F94S, G96S, S97T, F101W, S105G
notes: as for B1
